Source: US20080176792A1, “VEGFR-1 TARGETING PEPTIDES” (priority 2000, published 2008)
Bridge positions count the residues as written; N and C are the ends. Ends that are not written are not given here.

Assays:
KS1767 cells = experiment: BRASIL binding of phage to KS1767 cells, with synthetic peptide competition; format: cell-based; conditions: for effect of soluble peptide on RGD-4C phage binding to KS1767 cells: competition experiment
Experimental: FIG. 2A. BRASIL method optimization. A single-cell suspension of Kaposi sarcoma-derived cells (KS1767) was incubated with increasing titers of a phage displaying an alpha v integrin-binding motif (RGD-4C phage) or a control phage with no peptide insert (Fd phage). KS1767 cells were chosen because they express high levels of alpha v integrins. Cells and phage were incubated for 4 hours on ice (to prevent phage internalization) and centrifuged for 10 minutes at 10,000 g. The phage bound to the KS1767 cells were recovered by infection of a host E. coli, and plated in LB/tet agar plates at 37° C. overnight. Finally, the phage transducing units were counted. Extremely low backgrounds were observed. Under non-saturated conditions, a conservative mean estimate of the enrichment of RGD-4C phage in relation to Fd phage is 500-1000. This experiment was repeated three times with similar results. Mean and standard deviation are shown.
Cells were harvested with phosphate-buffered saline (PBS) and 5 mM EDTA, washed with MEM, and re-suspended in MEM containing 1% BSA at 10^6 cells/ml and incubated with phage in 1.5 ml Eppendorf tubes. After 4 h, 100 μl of the cell-phage suspension was gently transferred to the top of a non-miscible organic lower phase (200 μl in a 400 μl-Eppendorf tube) and centrifuged at 10,000 g for 10 minutes. The preferred organic phase combination consisted of a mixture of dibutyl phthalate:cyclohexane (9:1 [v/v]; ρ=1.03 g/ml). BRASIL has been attempted with other phthalate admixtures with the appropriate density (for example, dibutyl phthalate:diisooctyl phthalate; 4:6 [v/v]) with similar results. The tube was snap frozen in liquid nitrogen, the bottom of the tube sliced off, and the cell-phage pellet transferred to a new tube. Bound phage were rescued by infection with 200 μl of E. coli K91kan host bacteria in log phase. To evaluate binding specificity, phage and cells were incubated with the cognate or control synthetic peptides for competition assays.
KS1767 cells were detached with cold EDTA and re-suspended in MEM containing 1% BSA. […] The cell suspension was incubated with RGD-4C phage or a control phage with no peptide insert (fd-tet phage). Increasing amounts of either phage were added to the cells in suspension and the cell-phage admixture was incubated for 4 hr on ice. BRASIL was performed on ice to minimize post-binding events such as ligand-receptor internalization by the target cells. The cells were separated by centrifugation through the organic phase as described above. Bound phage were recovered and phage TU were counted. To compare BRASIL to conventional cell panning methods that require an additional washing step, 200 μl of the cell suspension were incubated with phage for 4 hr on ice. […]

rat NRP-1 = molecular target: T1, rat NRP-1 (Rattus norvegicus, UniProt Q9QWJ9); experiment: Phage binding to immobilized purified receptor, with competition; conditions: competitor pre-incubated with immobilized receptor; PDGF-BB up to 200 ng/ml
T1 construct: purchased R&D Systems Minneapolis, Minn
T1 sequence (Q9QWJ9 with tags, fused parts or gaps limits assumed): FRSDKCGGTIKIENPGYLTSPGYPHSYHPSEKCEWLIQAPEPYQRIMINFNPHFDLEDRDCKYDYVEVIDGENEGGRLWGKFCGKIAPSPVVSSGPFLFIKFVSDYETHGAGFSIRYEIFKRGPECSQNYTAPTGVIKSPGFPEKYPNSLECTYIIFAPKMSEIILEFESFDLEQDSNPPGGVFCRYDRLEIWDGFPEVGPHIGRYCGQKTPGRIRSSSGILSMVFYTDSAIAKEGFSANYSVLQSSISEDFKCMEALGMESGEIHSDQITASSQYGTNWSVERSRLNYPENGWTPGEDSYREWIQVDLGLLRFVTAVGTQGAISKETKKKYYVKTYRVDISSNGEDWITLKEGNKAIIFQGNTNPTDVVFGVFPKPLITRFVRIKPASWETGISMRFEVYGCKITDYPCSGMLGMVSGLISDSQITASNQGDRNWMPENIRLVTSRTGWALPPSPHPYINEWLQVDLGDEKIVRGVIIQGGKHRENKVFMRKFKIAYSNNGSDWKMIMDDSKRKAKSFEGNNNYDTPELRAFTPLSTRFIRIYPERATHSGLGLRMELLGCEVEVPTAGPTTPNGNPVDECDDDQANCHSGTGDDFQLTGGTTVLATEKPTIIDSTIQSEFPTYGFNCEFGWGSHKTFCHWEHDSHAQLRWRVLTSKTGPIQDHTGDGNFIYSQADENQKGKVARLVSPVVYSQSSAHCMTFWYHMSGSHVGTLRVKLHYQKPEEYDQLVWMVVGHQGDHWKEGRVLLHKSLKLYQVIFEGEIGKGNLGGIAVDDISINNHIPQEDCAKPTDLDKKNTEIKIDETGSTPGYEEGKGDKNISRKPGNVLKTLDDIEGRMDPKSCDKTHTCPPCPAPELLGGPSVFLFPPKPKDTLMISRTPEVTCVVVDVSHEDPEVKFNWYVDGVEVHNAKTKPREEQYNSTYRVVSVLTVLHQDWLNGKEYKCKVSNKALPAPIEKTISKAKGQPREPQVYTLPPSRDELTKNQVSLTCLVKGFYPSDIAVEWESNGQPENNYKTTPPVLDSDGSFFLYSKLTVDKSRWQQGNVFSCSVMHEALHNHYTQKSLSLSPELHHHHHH
Experimental: (§1) Human VEGFR-1, human VEGFR-2, rat NRP-1, and rat NRP-2 (1 μg in 50 μl of PBS) were immobilized on microtiter well plates overnight at 4° C. The wells were washed twice with PBS, blocked with PBS containing 3% BSA for 2 h at room temperature, and then incubated with 10^9 TU of either […] (SEQ ID NO:6) phage, […] (SEQ ID NO:11) phage, or fd-tet phage in 50 μl of PBS/1.5% BSA. After 1 hr at room temperature, wells were washed nine times with PBS and phage were recovered by bacterial infection. Serial dilutions were plated onto Luria-Bertani (LB) medium supplemented with tetracycline. VEGF165, PDGF-BB, or synthetic peptides were used at the indicated concentrations and pre-incubated with the immobilized proteins to evaluate competitive inhibition of phage binding. ELISA with either polyclonal anti-VEGFR-1 serum or anti-human IgG (VEGFR-2, NRP-1, and NRP-2) confirmed the presence and concentration of the immobilized receptors on the microtiter plates. […] Following three washes, VEGF165 binding was evaluated by ELISA by using anti-VEGF specific antibodies (data not shown).

human VEGFR-1 = molecular target: T2, human VEGFR-1 (Homo sapiens, UniProt P17948); experiment: as above; conditions: for blocking of clone 19 phage binding to VEGF-R1 by competitor: competitor pre-incubated with immobilized receptor, PDGF-BB up to 200 ng/ml
T2 construct: purchased Oncogene Research Products, Boston, Mass
T2 sequence (P17948 27-1338): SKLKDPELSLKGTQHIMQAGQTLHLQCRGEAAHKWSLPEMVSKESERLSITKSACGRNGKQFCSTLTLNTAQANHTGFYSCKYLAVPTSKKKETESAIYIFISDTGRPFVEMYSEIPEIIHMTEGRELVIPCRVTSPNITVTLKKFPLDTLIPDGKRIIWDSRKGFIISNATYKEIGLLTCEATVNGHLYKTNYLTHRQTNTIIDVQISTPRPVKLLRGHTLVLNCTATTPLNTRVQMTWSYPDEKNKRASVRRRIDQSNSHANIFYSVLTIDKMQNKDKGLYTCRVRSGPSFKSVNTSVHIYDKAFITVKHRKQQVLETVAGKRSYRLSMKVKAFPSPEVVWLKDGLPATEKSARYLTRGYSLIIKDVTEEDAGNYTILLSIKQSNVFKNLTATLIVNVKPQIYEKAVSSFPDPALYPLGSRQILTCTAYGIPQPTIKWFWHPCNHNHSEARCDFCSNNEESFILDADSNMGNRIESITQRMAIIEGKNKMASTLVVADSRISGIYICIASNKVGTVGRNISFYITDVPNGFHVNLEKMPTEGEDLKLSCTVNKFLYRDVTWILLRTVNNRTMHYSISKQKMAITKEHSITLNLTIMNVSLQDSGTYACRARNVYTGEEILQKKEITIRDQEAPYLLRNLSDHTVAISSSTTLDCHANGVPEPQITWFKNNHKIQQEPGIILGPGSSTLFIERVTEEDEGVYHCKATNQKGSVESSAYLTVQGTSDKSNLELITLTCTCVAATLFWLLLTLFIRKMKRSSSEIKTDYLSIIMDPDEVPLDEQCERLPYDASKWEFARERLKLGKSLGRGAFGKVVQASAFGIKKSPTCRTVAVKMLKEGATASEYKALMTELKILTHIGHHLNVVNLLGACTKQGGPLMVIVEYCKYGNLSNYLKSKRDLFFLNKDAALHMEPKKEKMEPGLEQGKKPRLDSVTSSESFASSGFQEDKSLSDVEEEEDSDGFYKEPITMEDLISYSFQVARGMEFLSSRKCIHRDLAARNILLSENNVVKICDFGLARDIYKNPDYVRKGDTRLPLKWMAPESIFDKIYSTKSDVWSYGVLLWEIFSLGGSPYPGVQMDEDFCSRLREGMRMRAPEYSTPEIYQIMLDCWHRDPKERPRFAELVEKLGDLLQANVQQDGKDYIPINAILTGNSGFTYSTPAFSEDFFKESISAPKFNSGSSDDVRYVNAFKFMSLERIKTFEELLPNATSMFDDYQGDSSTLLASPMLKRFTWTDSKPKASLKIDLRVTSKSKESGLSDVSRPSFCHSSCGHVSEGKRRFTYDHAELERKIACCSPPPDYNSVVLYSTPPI
Experimental: as §1

RT4 tumor cells = experiment: Phage attachment to subconfluent cell monolayer, with peptide competition; format: cell-based, human; conditions: increasing amounts of peptide
porcine bladder mucosa = experiment: Dot blot chamber assay after removal of the GAG-layer; format: cell-based; conditions: 0.1M HCl for 2 min; relative to untreated mucosa set to 1
Experimental: FIG. 10. Influence of the GAG-layer on phage binding. In the dot blot chamber assay portions of a porcine bladder mucosa were treated with 0.1M HCl for 2 min prior to remove the GAG-layer. Binding to treated surface is given relative to untreated surface, that was set as 1. Bound phage were detected after intensive washing by infection with log phase K91 bacteria and plating of serial dilutions.
Removal of the glucosaminoglycan- (GAG-) layer on intact mucosa samples was performed as a dot blot chamber assay. Half of the wells were incubated with 200 μl 0.1M HCl per well for 2 min, intensely rinsed with blocking solution and both parts blocked as before. Results are given relative to fd-tet phage to untreated mucosa, that was set to 1.
Using the same assay the influence of the glucosaminoglycan (GAG) layer on binding of several phage to intact mucosa was examined. The GAG-layer was removed as described above. Half of the mucosa of human ureter and porcine bladder specimens were treated inside the dot blot chamber with […] for 2 min, extensively washed and the binding assay performed as before.

[1] = molecular target: alpha v integrins on KS1767 cells (Kaposi sarcoma-derived cell line) (UniProt P06756); experiment: BRASIL, phage on KS1767 cells in suspension, transducing units recovered
alpha v integrins on KS1767 cells (Kaposi sarcoma-derived cell line), sequence (P06756 31-1048): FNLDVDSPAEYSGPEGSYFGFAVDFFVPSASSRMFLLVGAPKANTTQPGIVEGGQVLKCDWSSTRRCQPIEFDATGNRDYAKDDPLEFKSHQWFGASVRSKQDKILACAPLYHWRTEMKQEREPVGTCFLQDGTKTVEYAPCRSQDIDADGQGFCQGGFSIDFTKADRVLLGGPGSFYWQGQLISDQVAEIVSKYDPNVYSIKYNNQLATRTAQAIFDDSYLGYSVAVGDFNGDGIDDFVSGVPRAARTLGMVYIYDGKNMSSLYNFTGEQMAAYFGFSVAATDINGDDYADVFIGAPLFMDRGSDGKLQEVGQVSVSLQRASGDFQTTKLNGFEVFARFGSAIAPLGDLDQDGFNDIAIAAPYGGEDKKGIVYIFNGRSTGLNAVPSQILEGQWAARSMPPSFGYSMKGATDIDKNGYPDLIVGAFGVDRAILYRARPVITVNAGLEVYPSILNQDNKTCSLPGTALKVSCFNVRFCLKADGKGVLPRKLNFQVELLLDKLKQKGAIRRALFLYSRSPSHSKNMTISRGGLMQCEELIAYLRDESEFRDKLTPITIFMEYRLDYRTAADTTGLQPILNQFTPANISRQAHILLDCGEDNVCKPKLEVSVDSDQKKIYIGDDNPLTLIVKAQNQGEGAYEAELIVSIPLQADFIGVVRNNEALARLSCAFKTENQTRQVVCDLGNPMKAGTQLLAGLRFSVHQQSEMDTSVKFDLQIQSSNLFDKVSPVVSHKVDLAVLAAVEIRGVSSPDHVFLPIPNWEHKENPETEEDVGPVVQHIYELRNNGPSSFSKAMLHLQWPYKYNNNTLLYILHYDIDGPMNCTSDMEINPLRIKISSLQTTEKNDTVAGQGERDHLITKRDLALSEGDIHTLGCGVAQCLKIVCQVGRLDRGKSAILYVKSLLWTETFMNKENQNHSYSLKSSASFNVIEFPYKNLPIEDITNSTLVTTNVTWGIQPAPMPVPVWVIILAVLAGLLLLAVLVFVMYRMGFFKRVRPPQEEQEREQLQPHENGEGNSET

[2] = molecular target: T3, recombinant human VEGFR-1 (human, UniProt P17948 27-758, limits assumed); experiment: competition of clone-19 phage binding to immobilized receptors; reference is NRP-1 (not shown)
T3 construct: Bought; immobilized on microtiter wells (1 ug in 50 ul PBS); also called Flt1
T3 sequence (P17948 27-758 limits assumed): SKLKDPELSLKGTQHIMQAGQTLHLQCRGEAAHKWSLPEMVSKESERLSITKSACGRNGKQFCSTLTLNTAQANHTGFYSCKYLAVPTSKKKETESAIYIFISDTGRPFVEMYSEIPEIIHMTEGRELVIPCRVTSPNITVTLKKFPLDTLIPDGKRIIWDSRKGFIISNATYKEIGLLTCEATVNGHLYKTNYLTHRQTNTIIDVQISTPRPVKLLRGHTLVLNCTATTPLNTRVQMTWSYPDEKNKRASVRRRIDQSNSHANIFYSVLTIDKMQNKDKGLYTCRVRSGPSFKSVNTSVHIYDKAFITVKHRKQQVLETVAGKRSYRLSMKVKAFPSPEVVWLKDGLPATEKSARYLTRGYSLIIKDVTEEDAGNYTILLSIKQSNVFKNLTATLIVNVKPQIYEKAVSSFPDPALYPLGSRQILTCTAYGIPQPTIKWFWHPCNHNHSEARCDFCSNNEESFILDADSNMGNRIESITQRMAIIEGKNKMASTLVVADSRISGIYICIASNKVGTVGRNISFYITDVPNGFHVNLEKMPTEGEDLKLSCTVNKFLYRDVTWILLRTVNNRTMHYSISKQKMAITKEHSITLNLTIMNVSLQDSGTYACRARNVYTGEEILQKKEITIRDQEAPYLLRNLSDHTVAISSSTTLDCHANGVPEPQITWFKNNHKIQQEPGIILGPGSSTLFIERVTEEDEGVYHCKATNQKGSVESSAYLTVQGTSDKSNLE
Experimental: (§2) Human VEGFR-1, human VEGFR-2, rat NRP-1, and rat NRP-2 (1 μg in 50 μl of PBS) were immobilized on microtiter well plates overnight at 4° C. The wells were washed twice with PBS, blocked with PBS containing 3% BSA for 2 h at room temperature, and then incubated with 10⁹ TU of either […] […] (SEQ ID NO:11) phage, or fd-tet phage in 50 μl of PBS/1.5% BSA. After 1 hr at room temperature, wells were washed nine times with PBS and phage were recovered by bacterial infection. Serial dilutions were plated onto Luria-Bertani (LB) medium supplemented with tetracycline. VEGF₁₆₅, PDGF-BB, or synthetic peptides were used at the indicated concentrations and pre-incubated with the immobilized proteins to evaluate competitive inhibition of phage binding.

recombinant rat NRP-1/Fc = molecular target: T4, recombinant rat NRP-1/Fc (rat; human, UniProt Q9QWJ9 22-854, limits assumed); experiment: competition of clone-19 phage binding to immobilized NRP-1 (not shown)
T4 construct: Bought receptor/Fc chimera; also called rat Neuropilin-1; neuropilin-1; not shown: Fc region of human IgG1
T4 sequence (looked up): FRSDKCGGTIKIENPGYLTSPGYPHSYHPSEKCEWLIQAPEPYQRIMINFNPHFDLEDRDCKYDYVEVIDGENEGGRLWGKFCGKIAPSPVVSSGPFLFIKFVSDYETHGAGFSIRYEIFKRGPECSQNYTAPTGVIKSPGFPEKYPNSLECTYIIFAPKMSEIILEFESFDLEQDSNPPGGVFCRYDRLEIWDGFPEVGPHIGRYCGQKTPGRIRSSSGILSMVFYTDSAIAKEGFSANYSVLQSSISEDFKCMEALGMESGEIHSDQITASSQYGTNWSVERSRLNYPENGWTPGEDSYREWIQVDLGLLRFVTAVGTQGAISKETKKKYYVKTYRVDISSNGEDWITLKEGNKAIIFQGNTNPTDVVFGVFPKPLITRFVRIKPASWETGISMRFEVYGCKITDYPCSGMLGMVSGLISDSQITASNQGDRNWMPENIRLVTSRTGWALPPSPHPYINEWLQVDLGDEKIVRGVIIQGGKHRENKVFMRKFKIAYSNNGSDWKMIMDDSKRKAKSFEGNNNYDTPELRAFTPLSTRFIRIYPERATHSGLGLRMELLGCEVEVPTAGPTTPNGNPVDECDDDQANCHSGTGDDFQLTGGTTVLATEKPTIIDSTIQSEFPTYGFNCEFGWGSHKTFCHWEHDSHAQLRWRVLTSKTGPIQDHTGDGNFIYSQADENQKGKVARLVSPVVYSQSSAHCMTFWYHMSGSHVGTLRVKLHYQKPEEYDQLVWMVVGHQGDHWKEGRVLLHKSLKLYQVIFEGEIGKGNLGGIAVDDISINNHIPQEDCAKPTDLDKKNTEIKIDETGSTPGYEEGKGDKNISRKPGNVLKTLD
Experimental: as §2

[3] = molecular target: alpha v integrins on KS1767 cells (Kaposi sarcoma-derived cell line) (UniProt P06756); experiment: BRASIL on KS1767 cells, competition with peptide in solution

GRGESP was tested, and the “effect of soluble peptide on RGD-4C phage binding to KS1767 cells” value (shortened to “effect of soluble peptide”) (KS1767 cells) was “no effect”.

For CPQPRPLC, the “blocking of clone 19 phage binding to NRP-1 by competitor” value (rat NRP-1) was “blocked”, the “efficiency in blocking phage binding to VEGF-R1 relative to NRP-1” value (human VEGFR-1; clone 19 phage, VEGF-R1 versus NRP-1) was “approximately 100 fold” and the “blocking of clone 19 phage binding to VEGF-R1 by competitor” value (human VEGFR-1) was “blocked”.

In the case of `O=c1[nH]cc(F)c(=O)[nH]1` [CARAC, reference compound], the “effect of soluble peptide” value (KS1767 cells) is reported as “no effect” and the “effect of peptide on VHALES phage binding to RT4 tumor cells” value (shortened to “effect of peptide”) (RT4 tumor cells) is reported as “unchanged and not”.

CRIRMSAGC was tested, and the “change of phage binding after GAG-removal” value (porcine bladder mucosa) was “unchanged”.

For “PDGF-BB: PDGF-BB obtained commercially (R&D Systems) [reference compound]”, the “blocking of clone 19 phage binding to NRP-1 by competitor” value (rat NRP-1) was “not” and the “blocking of clone 19 phage binding to VEGF-R1 by competitor” value (human VEGFR-1) was “not”.

With CDCRGDCFC [RGD-4C peptide] the “effect of soluble peptide” value (KS1767 cells) was “completely inhibited” and the “inhibition of RGD-4C phage binding to KS1767 cells” value (KS1767 cells; synthetic peptide in solution) was 99.99%.

Work on RGD-4C phage (peptide) yielded an enrichment in relation to Fd phage [1] of 500 to 1000 fold and a ratio of RGD4C to Fd phage recovered (enrichment) [1] of 100 to 500 fold.

In the case of VHALES [VHALES peptide], the “effect of peptide” value (RT4 tumor cells) is reported as “reduced” and the “effect of peptide” value (RT4 tumor cells; listed as VHALE) is reported as “inhibited”.

With CPQPRPLC (disulfide 1-8 (inferred)) [synthetic cognate peptide CPQPRPLC (SEQ ID NO:6)] the “fold efficiency in blocking phage binding, VEGF-R1 against NRP-1” value [2] was ~100 fold and the binding result (recombinant rat NRP-1/Fc) was “binds”.

B1: synthetic RGD-4C peptide, containing the targeting sequence … (SEQ ID NO:9) (peptide)
peptide: CDCRGDCFC
modifications: disulfide (positions not given here); not fully specified; also: cyclized, bonds not given here
B1 gave a percent inhibition of RGD-4C phage binding [3] of 100%.
